Results reported in US20130060011A1 (published 2013).

Legend:
human MCSP = human MCSP (human, UniProt Q6UVK1 30-2322); experiment: cell-based or functional assay
human CD3 = human CD3 (human, UniProt P07766 23-207); experiment: cell-based or functional assay
Sequence of human CD3 (P07766 23-207): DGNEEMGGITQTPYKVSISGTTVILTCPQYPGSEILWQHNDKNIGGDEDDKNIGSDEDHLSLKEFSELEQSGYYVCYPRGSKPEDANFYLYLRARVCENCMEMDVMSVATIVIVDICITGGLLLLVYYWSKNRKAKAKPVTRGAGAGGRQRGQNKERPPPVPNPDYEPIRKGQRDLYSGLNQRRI

Sequence of human MCSP (Q6UVK1 30-2322): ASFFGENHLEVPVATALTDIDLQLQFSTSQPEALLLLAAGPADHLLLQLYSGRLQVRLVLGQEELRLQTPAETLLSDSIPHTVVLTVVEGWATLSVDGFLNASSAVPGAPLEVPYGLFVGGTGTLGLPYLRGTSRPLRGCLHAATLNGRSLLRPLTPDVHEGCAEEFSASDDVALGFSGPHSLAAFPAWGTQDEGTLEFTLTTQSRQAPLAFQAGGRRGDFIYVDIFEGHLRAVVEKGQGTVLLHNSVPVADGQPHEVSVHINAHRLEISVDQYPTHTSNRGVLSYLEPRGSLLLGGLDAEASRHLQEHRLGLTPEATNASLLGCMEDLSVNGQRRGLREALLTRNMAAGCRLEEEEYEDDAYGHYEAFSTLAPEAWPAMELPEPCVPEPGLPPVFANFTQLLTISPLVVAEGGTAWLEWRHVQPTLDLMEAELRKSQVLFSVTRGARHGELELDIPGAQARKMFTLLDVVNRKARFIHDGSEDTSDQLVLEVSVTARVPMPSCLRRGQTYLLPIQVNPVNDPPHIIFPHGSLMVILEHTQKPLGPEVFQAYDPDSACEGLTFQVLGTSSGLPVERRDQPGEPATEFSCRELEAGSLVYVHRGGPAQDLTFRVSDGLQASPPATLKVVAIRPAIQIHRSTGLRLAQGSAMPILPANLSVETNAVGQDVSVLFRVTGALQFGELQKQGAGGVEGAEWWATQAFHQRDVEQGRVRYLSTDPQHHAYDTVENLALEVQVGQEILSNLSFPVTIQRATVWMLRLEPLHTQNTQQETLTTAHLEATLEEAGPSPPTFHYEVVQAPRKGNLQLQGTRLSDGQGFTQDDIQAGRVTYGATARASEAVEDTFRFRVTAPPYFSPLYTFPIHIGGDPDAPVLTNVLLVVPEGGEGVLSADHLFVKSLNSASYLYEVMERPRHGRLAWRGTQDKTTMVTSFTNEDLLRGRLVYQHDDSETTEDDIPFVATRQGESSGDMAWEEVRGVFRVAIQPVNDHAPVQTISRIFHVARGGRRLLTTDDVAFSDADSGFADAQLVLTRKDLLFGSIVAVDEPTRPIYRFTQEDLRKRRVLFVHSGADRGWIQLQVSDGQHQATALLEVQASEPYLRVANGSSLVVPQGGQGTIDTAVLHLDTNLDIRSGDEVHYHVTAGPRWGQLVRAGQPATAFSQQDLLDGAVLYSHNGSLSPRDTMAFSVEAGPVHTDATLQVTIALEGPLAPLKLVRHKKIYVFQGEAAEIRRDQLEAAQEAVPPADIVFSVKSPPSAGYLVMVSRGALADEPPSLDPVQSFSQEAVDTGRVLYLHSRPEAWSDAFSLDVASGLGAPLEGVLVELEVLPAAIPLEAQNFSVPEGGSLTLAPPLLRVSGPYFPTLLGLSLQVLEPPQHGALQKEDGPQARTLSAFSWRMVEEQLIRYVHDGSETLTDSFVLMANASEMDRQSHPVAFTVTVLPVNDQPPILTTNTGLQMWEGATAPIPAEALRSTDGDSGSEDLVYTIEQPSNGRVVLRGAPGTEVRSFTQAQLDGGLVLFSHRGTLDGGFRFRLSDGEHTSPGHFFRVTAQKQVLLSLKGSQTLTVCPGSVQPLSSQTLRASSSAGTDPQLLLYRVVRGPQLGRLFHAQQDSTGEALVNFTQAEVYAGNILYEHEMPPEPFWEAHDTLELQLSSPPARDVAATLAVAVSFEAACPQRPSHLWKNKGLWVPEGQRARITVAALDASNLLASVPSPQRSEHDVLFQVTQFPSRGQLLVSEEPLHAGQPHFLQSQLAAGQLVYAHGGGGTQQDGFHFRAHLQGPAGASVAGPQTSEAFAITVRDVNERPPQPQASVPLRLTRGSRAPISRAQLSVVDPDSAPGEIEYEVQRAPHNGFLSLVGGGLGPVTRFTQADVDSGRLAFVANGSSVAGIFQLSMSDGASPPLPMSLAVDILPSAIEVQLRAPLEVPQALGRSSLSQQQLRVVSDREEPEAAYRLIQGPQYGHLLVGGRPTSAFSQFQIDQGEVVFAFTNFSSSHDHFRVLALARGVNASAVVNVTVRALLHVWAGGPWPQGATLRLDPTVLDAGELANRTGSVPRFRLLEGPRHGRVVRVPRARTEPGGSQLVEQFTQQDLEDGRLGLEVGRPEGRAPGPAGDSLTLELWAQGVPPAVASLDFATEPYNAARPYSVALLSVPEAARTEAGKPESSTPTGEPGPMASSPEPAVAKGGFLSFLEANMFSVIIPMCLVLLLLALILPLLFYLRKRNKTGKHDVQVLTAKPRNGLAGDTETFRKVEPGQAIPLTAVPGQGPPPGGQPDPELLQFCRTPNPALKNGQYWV

B1: (scFv)2 (antiMCSP/anti huCD3e) (bispecific antibody)
scFv: DIVLTQSPSSLSASLGDRVTISCSASQGIRNYLNWYQQRPDGTVKLLIYYTSSLHSGVPSRFSGSGSGTDYSLTISNLEPEDIATYYCQQYSKLPWTFGGGTKLEIKGGGGSGGGGSGGGGSEVQLQESGPGLVKPSQSLSLTCSVTGYSITSGYYWNWIRQFPGNKLEWMGYITYDGSNNYNPSLKNRISITRDTSKNQFFLKLNSVTTEDTATYYCADFDYWGQGTTLTVSSGGGGSEVQLVESGGGLVQPGGSLRLSCAASGYSFTGYTMNWVRQAPGKGLEWVALINPYKGVSTYNQKFKDRFTISVDKSKNTAYLQMNSLRAEDTAVYYCARSGYYGDSDWYFDVWGQGTLVTVSSVEGGSGGSGGSGGSGGVDDIQMTQSPSSLSASVGDRVTITCRASQDIRNYLNWYQQKPGKAPKLLIYYTSRLESGVPSRFSGSGSGTDYTLTISSLQPEDFATYYCQQGNTLPWTFGQGTKVEIKHHHHHH
Human MCSP
  Killing (as measured by LDH release) of MV-3 tumor cells upon co-culture with human PBMCs (E:T ratio=10:1), 24 hours; EC50: 57 pM
Human CD3
  Killing (as measured by LDH release) of MV-3 tumor cells upon co-culture with human PBMCs (E:T ratio=10:1), 24 hours; EC50: 57 pM

B2: hu Fab (MCSP)-Crossfab (CD3) (bispecific antibody)
heavy: EVQLQESGPGLVKPSQSLSLTCSVTGYSITSGYYWNWIRQFPGNKLEWMGYITYDGSNNYNPSLKNRISITRDTSKNQFFLKLNSVTTEDTATYYCADFDYWGQGTTLTVSSASTKGPSVFPLAPSSKSTSGGTAALGCLVKDYFPEPVTVSWNSGALTSGVHTFPAVLQSSGLYSLSSVVTVPSSSLGTQTYICNVNHKPSNTKVDKKVEPKSCDGGGGSGGGGSDIQMTQSPSSLSASVGDRVTITCRASQDIRNYLNWYQQKPGKAPKLLIYYTSRLESGVPSRFSGSGSGTDYTLTISSLQPEDFATYYCQQGNTLPWTFGQGTKVEIKSSASTKGPSVFPLAPSSKSTSGGTAALGCLVKDYFPEPVTVSWNSGALTSGVHTFPAVLQSSGLYSLSSVVTVPSSSLGTQTYICNVNHKPSNTKVDKKVEPKSC
light: DIVLTQSPSSLSASLGDRVTISCSASQGIRNYLNWYQQRPDGTVKLLIYYTSSLHSGVPSRFSGSGSGTDYSLTISNLEPEDIATYYCQQYSKLPWTFGGGTKLEIKRTVAAPSVFIFPPSDEQLKSGTASVVCLLNNFYPREAKVQWKVDNALQSGNSQESVTEQDSKDSTYSLSSTLTLSKADYEKHKVYACEVTHQGLSSPVTKSFNRGEC
chain: EVQLVESGGGLVQPGGSLRLSCAASGYSFTGYTMNWVRQAPGKGLEWVALINPYKGVSTYNQKFKDRFTISVDKSKNTAYLQMNSLRAEDTAVYYCARSGYYGDSDWYFDVWGQGTLVTVSSASVAAPSVFIFPPSDEQLKSGTASVVCLLNNFYPREAKVQWKVDNALQSGNSQESVTEQDSKDSTYSLSSTLTLSKADYEKHKVYACEVTHQGLSSPVTKSFNRGEC
Human MCSP
  Killing (as measured by LDH release) of MV-3 tumor cells upon co-culture with human PBMCs (E:T ratio=10:1), 24 hours; EC50: 25.4 pM
Human CD3
  Killing (as measured by LDH release) of MV-3 tumor cells upon co-culture with human PBMCs (E:T ratio=10:1), 24 hours; EC50: 25.4 pM
